Laboratory results published in US20190351049A1 (Regeneron, published 2019).

Legend:
MERS RBD-hFc [1] = target: T1, MERS RBD-hFc (MERS-CoV (isolate EMC/2012)); experiment: SPR Biacore, captured mAb, 37 C
MERS RBD-hFc [2] = target: T1, MERS RBD-hFc; experiment: SPR (Biacore), hybridoma supernatant antibody captured, MERS RBD-hFc as analyte
MERS RBD-hFc [3] = target: T1, MERS RBD-hFc; experiment: SPR Biacore, captured mAb, 25 C
MERS RBD-hFc [4] = target: T1, MERS RBD-hFc; experiment: ELISA on coated MERS RBD-hFc, hybridoma supernatant 1:50, absorbance at 450 nm

Row | Binder | Kd (MERS RBD-hFc [1]) | koff (MERS RBD-hFc [1]) | kon (MERS RBD-hFc [1]) | t1/2 (MERS RBD-hFc [1]) | Kd (MERS RBD-hFc [2]) | t½ (MERS RBD-hFc [2]) | Kd (MERS RBD-hFc [3]) | koff (MERS RBD-hFc [3]) | kon (MERS RBD-hFc [3]) | t1/2 (MERS RBD-hFc [3]) | ELISA Binding (MERS RBD-hFc [4])
1 | H1M15277N (antibody, V domains shown) V domain 1: EVQLLESGGGLVQPGGSLRLSCAASGFTFSSYAMSWVRQAPGKGLEWVSAISGRGGNTYYADSVKGRFTISRDNSKNTLFLQMNTLRAEDTAVYYCAKDRGFGFFDIWGRGTLATVSS V domain 2: not shown | 0.671 nM | 0.00218 s⁻¹ | 3.24e+06 M⁻¹ s⁻¹ | 5 min | 1.72 nM | 11.1 min | 0.346 nM | 0.00091 s⁻¹ | 2.63e+06 M⁻¹ s⁻¹ | 13 min | 2.68
2 | H2aM15278N (antibody, V domains shown) VH: QVQLVQSGAEVKKPGASVKVSCKASGYTFTSHGISWVRQAPGQGFEWMGWIGTYNSNTDYAQNFQGRVTMTTDTSTSTAYMELRNLRSDDTAVYYCARERGPYYGMDVWGQGTTVTVSS VL: EIVLAQSPGTLSLSPGERATLSCRASQSVNSNYLAWYQQKPGQAPRLLIYGASSRATGIPDRFSGSGSGTDFTLTISRLEPEDFAVYYCQQYGNSLTFGPGTKVDFK | 0.519 nM | 0.00113 s⁻¹ | 2.17e+06 M⁻¹ s⁻¹ | 10 min | 2.05 nM | 13.5 min | 0.506 nM | 0.000873 s⁻¹ | 1.72e+06 M⁻¹ s⁻¹ | 13 min | 2.42
3 | H2aM15281N (antibody, V domains shown) VH: QVQLVQSGAEVKKPGSSVKVSCKASKDTFSSYAISWVRQAPGQGLEWMGGIIPFFGTTTYEQKFQGRVTITTDESTRTAYMELSSLRSEDSAVYYCARDRPCISSAGTRYHYCVMDVWGQGTTVTVSS VL: not shown | 0.213 nM | 0.000543 s⁻¹ | 2.55e+06 M⁻¹ s⁻¹ | 21 min | 2.77 nM | 10.4 min | 0.39 nM | 0.000818 s⁻¹ | 2.1e+06 M⁻¹ s⁻¹ | 14 min | 2.54
4 | H2aM15272N (antibody, V domains shown) VH: QVRLVQSGAEVKKPGSSVKVSCKASGDTFSSYAISWVRQAPGQGLEWMGGIIPFFVTTTYAQNFQGRVTITTDESTRTAYMELSSLRSEDSAVYYCARDRPCISSAGTRYHYCVMDVWGQGTTVTVSS VL: not shown | 0.316 nM | 0.000634 s⁻¹ | 2e+06 M⁻¹ s⁻¹ | 18 min | 2.72 nM | 9.5 min | 0.443 nM | 0.000733 s⁻¹ | 1.65e+06 M⁻¹ s⁻¹ | 16 min | 2.52
5 | H2aM15270N (antibody, V domains shown) VH: EVQLLESGGGLEQPGGSLRLSCAASGFTFSSYAMIWVRQAPGKGLEWVSTISGSGVNTYYADSVKGRFTISRDNSKNTLHLQMNSLRAEDTAVYHCAKEGLDCANGVCYNYYGMDVWGQGTTVTVSS VL: DIQMTQSPSSLSASVGDRVTITCRASQSINSFLNWYHQKPGKAPKFLIYSASNLQSGVPSRFSGSGSGTDFTLTISSLQPEDFSTYYCQQSYSIPLTFGGGTKVEIK | 0.651 nM | 0.00114 s⁻¹ | 1.75e+06 M⁻¹ s⁻¹ | 10 min | 1.79 nM | 17.3 min | 0.776 nM | 0.000605 s⁻¹ | 779000 M⁻¹ s⁻¹ | 19 min | 2.04
6 | H1M15280N (antibody, V domains shown) VH: EVQLLESGGGLVQPGGSLRLSCAASGFTFSSYAMSWVRQAPGKGLEWVSAISGSGSSTYYADSVKGRFTISRDNSKNTLFLQMNSLRAEDTAVYYCAEGGDVDFDYWGQGTLVTVSS VL: not shown | 13.2 nM | 0.00657 s⁻¹ | 497000 M⁻¹ s⁻¹ | 1.8 min | 6.53 nM | 7.4 min | 18.5 nM | 0.00525 s⁻¹ | 283000 M⁻¹ s⁻¹ | 2.2 min | 2.75
7 | H1H15231P2 (antibody, V domains shown) VH: QLQLQESGPGLVKPSETLSLTCTVSGGSISSNTYYWGWIRQPPGKGLEWIGTIYYTGNTYYKSSLKSRVTISVDTSRNQFSLKLTSVTAADTAVYYCARQFADLNYVDYWGQGTLVTVSS VL: not shown | 0.139 nM | 9.19e-05 s⁻¹ | 659000 M⁻¹ s⁻¹ | 126 min | – | – | 0.116 nM | 7.44e-05 s⁻¹ | 639000 M⁻¹ s⁻¹ | 155 min | –
8 | H1H15188P (antibody, V domains shown) VH: QVQLVQSGAEVKKPGSSVKVSCKASGGSFSVYAISWVRQAPGQGLEWMGGIIPIFGTANYAQKFQDRFTITTDESTSTAYMELSSLRSEDTAMYYCAREGDIVVLPAGKGGMDVWGQGTTVTVSS VL: DIVMTQSPLSLPVTPGEPASISCRSSQSLLHGNGYNYLDWYLQKPGQSPQLLIYLVSHRASGVPDRFSGSGSGTDFTLKISRVEAEDVGVYYCMQALQSPWTFGQGTKVEIK | 0.167 nM | 0.000265 s⁻¹ | 1.59e+06 M⁻¹ s⁻¹ | 44 min | – | – | 0.0825 nM | 0.000122 s⁻¹ | 1.48e+06 M⁻¹ s⁻¹ | 95 min | –
9 | H1H15211P (antibody, V domains shown) VH: EVQLVESGGGLVQPGGSLRLSCVVSGFTFSNYDMSWVRQAPGRGLEWVSAIRGSGFNTYYADSVKGRFTISRDNSKNTLYLQMNSLRAEDTAVYYCAKDGSIVSMDYWGQGTLVTVSS VL: not shown | 0.194 nM | 0.00016 s⁻¹ | 827000 M⁻¹ s⁻¹ | 72 min | – | – | 0.0775 nM | 8.72e-05 s⁻¹ | 1.13e+06 M⁻¹ s⁻¹ | 133 min | –
10 | H1H15249P2 (antibody, V domains shown) VH: QLQLQESGPGLVKPSETLSLTCTVSGGSISNNNYYWGWIRQPPGKGLDWIGSIYYSGNTYYNPSLKSRVTISVDTSKNQFSLKMSSVTATDTALYYCARQGADHNWVDPWGQGTLVTVSS VL: not shown | 0.288 nM | 0.000127 s⁻¹ | 442000 M⁻¹ s⁻¹ | 91 min | – | – | 0.227 nM | 7.91e-05 s⁻¹ | 349000 M⁻¹ s⁻¹ | 146 min | –
11 | H1H15203P (antibody, V domains shown) VH: EVQLVESGGDLVQPGGSLRVSCAASGFTFSNYDMYWVRQAPGKGLEWVSVISGIGATTYYADSVKGRFTISRDNSKNTVFLQMNSLRAEDTAVYYCVKGGPIVATDYWGQGTLVTVSS VL: not shown | 0.645 nM | 0.000323 s⁻¹ | 501000 M⁻¹ s⁻¹ | 36 min | – | – | 0.273 nM | 0.000121 s⁻¹ | 443000 M⁻¹ s⁻¹ | 95 min | –
12 | H1H15237P2 (antibody, V domains shown) VH: EVQLVESGGGLVQPGGSLRLSCAASGFTSNSYPMSWVRQAPGKGLEWVSGISGRGGNTYYADSVKGRFTISRDNSKNTLYLQMNSLRVEDTAVYYCAETGTAFDYWGQGTLVTVSS VL: not shown | 0.797 nM | 0.000409 s⁻¹ | 514000 M⁻¹ s⁻¹ | 28 min | – | – | 0.274 nM | 0.00012 s⁻¹ | 439000 M⁻¹ s⁻¹ | 96 min | –
13 | H1H15228P2 (antibody, V domains shown) VH: EVQLVESGGGLVQPGGSLRLSCAVFGFTFSGYAMSWVRQAPGKGLEWVSAISGGGGSTYYTDSVKGRFTISRDNSKNTLYLQMNSLRAEDTAVYYCASYWNNGMDVWGQGTTVTVSS VL: not shown | 0.975 nM | 0.000464 s⁻¹ | 476000 M⁻¹ s⁻¹ | 25 min | – | – | 0.418 nM | 0.000185 s⁻¹ | 443000 M⁻¹ s⁻¹ | 63 min | –
14 | H1H15208P (antibody, V domains shown) VH: EVQLVESGGDLVQPGGSLRLSCTASGFTFSNYEMNWVRQAPEKGLDWVSFISSSGGAIYYADSVKGRFTISRDNAKNSLYLQMNSLRAEDSAIYFCARSDSGGNSRYWGQGTLVTVSS VL: DIQMTQSPSSVSASVGDRVTVTCRASQDISNWLVWYQQKPGKAPKFLIYAASSLQSGVPSRFSGSGSGTDFTLTISSLQPEDFATYYCQQANSFPPTFGGGTKVEIK | 1.01 nM | 0.000531 s⁻¹ | 525000 M⁻¹ s⁻¹ | 22 min | – | – | 0.553 nM | 0.000243 s⁻¹ | 439000 M⁻¹ s⁻¹ | 48 min | –
15 | H1H15177P (antibody, V domains shown) VH: EVQLVESGGGLVQPGGSLRLSCSASGFTFSSYDMSWVRQAPGKGLEWVSAIRGSGHTTYYADSVKGRFTISRDNSKNTLYLEMNSLRAEDTAVYYCVKDGSIVGFDPWGQGTLVTVSS VL: not shown | 1.23 nM | 0.000701 s⁻¹ | 568000 M⁻¹ s⁻¹ | 16 min | – | – | 0.39 nM | 0.000192 s⁻¹ | 493000 M⁻¹ s⁻¹ | 60 min | –
16 | H1H15253P2 (antibody, V domains shown) VH: EVQLVESGGGLVQPGGSLRLSCVVSGFTSRNYAMSWVRQAPGKGLEWVSAISGSGGSTYYADSVKGRFTISRDNPKNTLYLQMNSLRAEDTALYYCAEDPGTSFDYWGQGTLVTVSS VL: not shown | 1.44 nM | 0.000629 s⁻¹ | 436000 M⁻¹ s⁻¹ | 18 min | – | – | 0.348 nM | 0.000124 s⁻¹ | 356000 M⁻¹ s⁻¹ | 93 min | –
17 | H1H15215P (antibody, V domains shown) VH: EVQLVESGGGLVQPGGSLRLSCAASGFTFSTYGMSWVRQAPGKGLEWVSTIIGSGYNTYYSDSVKGRFTMSRDNSKSTLYLQMNSLRAEDTAVYYCTKEGPIIGTTNWGQGTLVTVSS VL: not shown | 1.68 nM | 0.000233 s⁻¹ | 138000 M⁻¹ s⁻¹ | 50 min | – | – | 0.671 nM | 9.67e-05 s⁻¹ | 144000 M⁻¹ s⁻¹ | 119 min | –
18 | H1H15233P2 (antibody, V domains shown) VH: EVQLVESGGGLVQPGGSLRLSCAASGFSFSSYGMNWVRQAPGKGLEWVSAISGRGGNTYSADSVKGRFTISRDNSKNTLFLQMNGLRAEDSAFYYCAKVGTYSSSSPFDYWGQGTLVTVSS VL: not shown | 0.127 nM | 4.74e-05 s⁻¹ | 374000 M⁻¹ s⁻¹ | 244 min | – | – | 0.229 nM | 4.56e-05 s⁻¹ | 199000 M⁻¹ s⁻¹ | 253 min | –
